From patent US20110223165A1 (Amgen, published 2011)
One block for each binder: values may come before it.

Key:
[1] = biological target: T1, Fcγ receptor I (CD64) on U-937 cells (UniProt P12314 16-374, limits assumed); test: binding to U-937 cells
T1 construct: whole, on cells; also called FcγRI

[2] = biological target: T2, human membrane c-Kit on cells (human, UniProt P10721 26-976); test: cell-based or functional assay
[3] = biological target: T2, human membrane c-Kit on cells; test: cell-based or functional assay; remark: listed apart in the source
[4] = biological target: c-Kit (form in the assay not stated) (UniProt P10721 26-520, limits assumed); test: Biacore assay, blocking of SCF binding to c-Kit; Biacore; blocking of SCF binding; c-Kit form not stated
[5] = biological target: T3, recombinant c-Kit receptor-Fc (UniProt P10721 26-520, limits assumed); test: KinExA equilibrium binding; KinExA equilibrium binding; recombinant c-Kit receptor-Fc
T3 construct: not shown: Fc part
T3 sequence (P10721 26-520 limits assumed): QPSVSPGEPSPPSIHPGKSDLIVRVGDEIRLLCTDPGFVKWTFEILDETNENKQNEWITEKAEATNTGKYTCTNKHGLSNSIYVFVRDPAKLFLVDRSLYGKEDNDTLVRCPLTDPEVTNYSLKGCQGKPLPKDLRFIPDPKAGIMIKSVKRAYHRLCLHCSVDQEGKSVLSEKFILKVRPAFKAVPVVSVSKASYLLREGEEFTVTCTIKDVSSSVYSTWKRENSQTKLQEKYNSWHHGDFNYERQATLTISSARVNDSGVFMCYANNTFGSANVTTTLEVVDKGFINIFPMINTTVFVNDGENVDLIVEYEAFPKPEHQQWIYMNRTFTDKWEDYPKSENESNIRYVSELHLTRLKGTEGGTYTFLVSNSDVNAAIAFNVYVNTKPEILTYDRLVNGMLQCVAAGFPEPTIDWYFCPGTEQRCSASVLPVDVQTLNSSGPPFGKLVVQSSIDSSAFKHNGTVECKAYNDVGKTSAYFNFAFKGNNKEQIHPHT

T2 sequence (P10721 26-976): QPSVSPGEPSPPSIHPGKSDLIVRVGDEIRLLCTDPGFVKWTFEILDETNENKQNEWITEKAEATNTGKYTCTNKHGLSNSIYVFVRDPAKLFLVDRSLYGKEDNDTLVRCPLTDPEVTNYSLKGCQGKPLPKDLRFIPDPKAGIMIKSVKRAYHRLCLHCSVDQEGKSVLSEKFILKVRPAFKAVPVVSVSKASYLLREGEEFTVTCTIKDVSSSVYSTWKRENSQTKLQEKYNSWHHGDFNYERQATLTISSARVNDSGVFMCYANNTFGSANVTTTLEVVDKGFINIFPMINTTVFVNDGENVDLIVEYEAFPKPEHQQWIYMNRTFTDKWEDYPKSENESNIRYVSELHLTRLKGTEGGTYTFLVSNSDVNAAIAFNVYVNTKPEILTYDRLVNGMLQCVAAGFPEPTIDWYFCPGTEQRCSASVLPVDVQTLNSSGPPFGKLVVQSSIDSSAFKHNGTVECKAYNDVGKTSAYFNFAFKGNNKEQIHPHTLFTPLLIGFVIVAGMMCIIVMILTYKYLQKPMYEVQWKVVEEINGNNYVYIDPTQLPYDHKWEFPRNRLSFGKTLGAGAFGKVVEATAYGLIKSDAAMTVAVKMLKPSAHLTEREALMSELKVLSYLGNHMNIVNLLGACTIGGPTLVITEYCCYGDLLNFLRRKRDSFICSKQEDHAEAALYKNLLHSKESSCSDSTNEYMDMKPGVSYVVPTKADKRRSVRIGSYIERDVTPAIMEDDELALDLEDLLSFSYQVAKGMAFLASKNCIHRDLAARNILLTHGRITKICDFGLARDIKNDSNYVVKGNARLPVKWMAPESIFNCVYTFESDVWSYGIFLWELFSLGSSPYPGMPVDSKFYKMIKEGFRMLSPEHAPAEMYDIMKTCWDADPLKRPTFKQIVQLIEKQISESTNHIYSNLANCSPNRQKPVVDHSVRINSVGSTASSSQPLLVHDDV
Sequence of c-Kit (form in the assay not stated) (P10721 26-520 limits assumed): as the sequence (P10721 26-520 limits assumed) above
T1 sequence (P12314 16-374 limits assumed): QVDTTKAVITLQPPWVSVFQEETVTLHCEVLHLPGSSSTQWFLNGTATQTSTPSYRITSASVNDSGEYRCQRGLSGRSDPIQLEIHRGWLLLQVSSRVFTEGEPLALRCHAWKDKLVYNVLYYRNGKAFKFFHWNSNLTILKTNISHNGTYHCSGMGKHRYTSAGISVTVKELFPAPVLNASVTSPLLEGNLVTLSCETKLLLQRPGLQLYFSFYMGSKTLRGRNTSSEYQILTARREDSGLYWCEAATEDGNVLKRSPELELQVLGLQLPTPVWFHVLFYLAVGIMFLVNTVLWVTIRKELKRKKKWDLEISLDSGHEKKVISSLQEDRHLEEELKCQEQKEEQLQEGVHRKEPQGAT

binding result [1]: no binding
UT-7 IC50 [2]: 4.5 ng/mL
Ki [4]: 0.07 nM
Kd [5]: 0.001 nM
B1: Humanized SR-1 aglycosylated IgG1 (hSR-1 aIgG1) (antibody)
heavy: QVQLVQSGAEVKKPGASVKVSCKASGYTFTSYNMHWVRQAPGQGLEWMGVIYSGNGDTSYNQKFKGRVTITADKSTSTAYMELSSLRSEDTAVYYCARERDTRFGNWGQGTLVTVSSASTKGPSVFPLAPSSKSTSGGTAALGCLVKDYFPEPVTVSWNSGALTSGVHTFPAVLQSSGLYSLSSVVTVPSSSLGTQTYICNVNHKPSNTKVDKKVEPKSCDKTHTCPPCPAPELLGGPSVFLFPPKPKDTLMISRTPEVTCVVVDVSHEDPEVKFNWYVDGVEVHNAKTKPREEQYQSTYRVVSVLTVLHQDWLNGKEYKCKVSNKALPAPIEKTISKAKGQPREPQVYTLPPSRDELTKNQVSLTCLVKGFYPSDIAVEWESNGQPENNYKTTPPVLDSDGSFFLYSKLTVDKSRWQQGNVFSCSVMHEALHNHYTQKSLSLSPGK
light: DIVMTQSPDSLAVSLGERATINCRASESVDIYGNSFMHWYQQKPGQPPKLLIYLASNLESGVPDRFSGSGSGTDFTLTISSLQAEDVAVYYCQQNNEDPYTFGGGTKVEIKRTVAAPSVFIFPPSDEQLKSGTASVVCLLNNFYPREAKVQWKVDNALQSGNSQESVTEQDSKDSTYSLSSTLTLSKADYEKHKVYACEVTHQGLSSPVTKSFNRGEC
notes: also called Humanized SR-1 aIgG1; Humanized SR-1 aglyco-IgG1
IC50, SCF-dependent survival/proliferation of UT-7 cells [3]: 0.035 nM

UT-7 IC50 [2]: 3.6 ng/mL
B2: murine anti-human c-Kit monoclonal antibody SR-1 (antibody, mouse IgG2a, kappa, V domains shown)
VH: QVQLQQPGAELVKPGASVKMSCKASGYTFTSYNMHWVKQTPGQGLEWIGVIYSGNGDTSYNQKFKGKATLTADKSSSTAYMQINSLTSEDSAVYYCARERDTRFGNWGQGTLVTVSA
VL: NIVLTQSPASLAVSLGLRATISCRASESVDIYGNSFMHWYQQKPGQPPKLLIYLASNLESGVPARFSGSGSRTDFTLTIDPVEADDAATYYCQQNNEDPYTFGGGTKLEIKR
